This is an account of results in the RNAGym collection of RNA variant scans (doi:10.1073/pnas.2313332121).

The labels stand for the following.
B1: TPR t1 (parent)
chain: GACCAAUCUGCCCUCAGAGCUCGAGAACAUCUUCGGAUGCAGAGGAGGCAGGCUUCGGUGGCGCGAUAGCGCCAACGUCCUCAACCUCCAAUGCAUCCCACCACAUGAUGAUGCCUGAAGAGCCUUGGUUUUUUG

Variants of B1 are the subject of this data set. Put plainly: polymerase ribozyme fitness, log enrichment relative to wild type (log ratio); higher = more active; in vitro selection for triplet polymerase activity. The procedure, abridged:
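Input and output libraries were sequenced on Illumina after a single in vitro selection round, run in triplicate on PCR-built, transcribed mutant libraries of each subunit of a heterodimeric triplet polymerase ribozyme. Selection annealed libraries to a biotinylated primer, the partner subunit and triplets, incubated them frozen at −7 °C, then gel-excised extended constructs for streptavidin-bead capture and RT-PCR. Genotypes with ≥10 input reads and ≥1 read per output were kept. Fitness is the logarithm, taken in base 2, of genotype enrichment divided by wild-type enrichment, using inverse-variance-weighted replicate averages.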
G19A C62U U78G: the “polymerase ribozyme fitness (log ratio)” value is -3.47.

Turning to C20A A41C G71A C82A, the “polymerase ribozyme fitness (log ratio)” value was -5.71.

C20A C124G: the “polymerase ribozyme fitness (log ratio)” value was -0.976.

As for C20G A24G G45C C73A C88A C115U, the “polymerase ribozyme fitness (log ratio)” value is -5.98.

For C20A C70U C76G, the “polymerase ribozyme fitness (log ratio)” value was -3.5.

Consider G19A C88U, for which the “polymerase ribozyme fitness (log ratio)” value was -2.19.

Regarding C20G A46U C62U C114U, the “polymerase ribozyme fitness (log ratio)” value was -3.55.

C20G U55G C72U A119G: the “polymerase ribozyme fitness (log ratio)” value was -2.6.

On to C20A C97A, for which the “polymerase ribozyme fitness (log ratio)” value is -5.7.

Take G19C C22U A46C G61U C114U: the “polymerase ribozyme fitness (log ratio)” value is -4.53.

In the case of C20A C82U U87G C102A, the “polymerase ribozyme fitness (log ratio)” value is -4.69.

As for C20A A41U G71A, the “polymerase ribozyme fitness (log ratio)” value was -4.76.

In the case of G19C G45A C72A G120C, the “polymerase ribozyme fitness (log ratio)” value is -1.67.

In the case of C20A G39U G42A U55C C99U G113C G122A C123U, the “polymerase ribozyme fitness (log ratio)” value was -6.79.

Regarding G19U U129G, the “polymerase ribozyme fitness (log ratio)” value is -4.04.

For the variant G19U G47U C49G C70U C86U U87C U109A C115U, the “polymerase ribozyme fitness (log ratio)” value was -6.81.

Take G19A G63C: the “polymerase ribozyme fitness (log ratio)” value is -2.92.

In the case of C20A A46G C49A G60U U81G A91C, the “polymerase ribozyme fitness (log ratio)” value was -5.46.

As for G19A C123U, the “polymerase ribozyme fitness (log ratio)” value was -2.48.

As to C20A A26G G110U, the “polymerase ribozyme fitness (log ratio)” value is -4.8.

Consider C20G C64A C98U A105C C114U U116A, for which the “polymerase ribozyme fitness (log ratio)” value is -6.79.

Regarding C20A G39U, the “polymerase ribozyme fitness (log ratio)” value is -4.11.

Turning to C20U A24U G60C G63C G69A U81G C98G U109G, the “polymerase ribozyme fitness (log ratio)” value was -6.52.

On to C20A U96A, for which the “polymerase ribozyme fitness (log ratio)” value is -4.02.

C20A A74G: the “polymerase ribozyme fitness (log ratio)” value is -3.04.

As for C20A C64G U92C A121C, the “polymerase ribozyme fitness (log ratio)” value was -6.25.

Take G19A G120A: the “polymerase ribozyme fitness (log ratio)” value is -2.6.

For the variant C20A C53A G57A C73U C79U C102A A121C, the “polymerase ribozyme fitness (log ratio)” value was -4.43.

Consider C20A A68G U78C C123U, for which the “polymerase ribozyme fitness (log ratio)” value is -4.98.

C20G A27G G120A: the “polymerase ribozyme fitness (log ratio)” value is -5.6.

Regarding G19U U55G C123A, the “polymerase ribozyme fitness (log ratio)” value is -4.18.

As for C20G G63A C102A U106C G120A U126A, the “polymerase ribozyme fitness (log ratio)” value was -7.38.

On to G19U G42C, for which the “polymerase ribozyme fitness (log ratio)” value is -3.93.

Regarding G19U G42A, the “polymerase ribozyme fitness (log ratio)” value is -3.15.

Turning to C20G A100U U112G, the “polymerase ribozyme fitness (log ratio)” value is -5.11.

For the variant C20A A46C A74G G93C A118G, the “polymerase ribozyme fitness (log ratio)” value is -5.42.

For the variant G19C C20U C64U, the “polymerase ribozyme fitness (log ratio)” value is -1.8.

G19A G44C U96A G120C: the “polymerase ribozyme fitness (log ratio)” value was -3.85.

For C20G C85G, the “polymerase ribozyme fitness (log ratio)” value is -3.76.

Take G19U A26U C114A: the “polymerase ribozyme fitness (log ratio)” value was -1.45.

In the case of G19C A37G G69U C124G, the “polymerase ribozyme fitness (log ratio)” value was 0.721.

Turning to G19C A29U C79G U112C A119G, the “polymerase ribozyme fitness (log ratio)” value was -4.42.

Consider C20G A46U A118G, for which the “polymerase ribozyme fitness (log ratio)” value is -5.92.

For the variant C20G G61A, the “polymerase ribozyme fitness (log ratio)” value is -3.66.

G19C U92A C114U U133A: the “polymerase ribozyme fitness (log ratio)” value is -1.16.

Consider G19U C34A G69C C114U, for which the “polymerase ribozyme fitness (log ratio)” value is -6.59.

Turning to C20G G61A A90C A95U, the “polymerase ribozyme fitness (log ratio)” value is -3.88.

For C20G C34U G63A C79U C99U A111C, the “polymerase ribozyme fitness (log ratio)” value is -5.53.

As for C20G G52U, the “polymerase ribozyme fitness (log ratio)” value is -5.6.

Turning to C20A A27C, the “polymerase ribozyme fitness (log ratio)” value was -4.9.

Consider C20G C86A, for which the “polymerase ribozyme fitness (log ratio)” value is -4.53.

With G19U U130G, the “polymerase ribozyme fitness (log ratio)” value was -3.14.

For the variant C20G U54G C73A C89G A100C, the “polymerase ribozyme fitness (log ratio)” value is -5.53.

Regarding C20A U131G, the “polymerase ribozyme fitness (log ratio)” value was -2.8.

Turning to G19U A43U, the “polymerase ribozyme fitness (log ratio)” value was -3.24.

As for G19U A43G, the “polymerase ribozyme fitness (log ratio)” value is -2.34.

Turning to C20A C22U G42U G113U U132A, the “polymerase ribozyme fitness (log ratio)” value was -3.71.

With G19U C56G U106C, the “polymerase ribozyme fitness (log ratio)” value was -5.42.

Turning to G19C G63U C80A G110C, the “polymerase ribozyme fitness (log ratio)” value is -6.93.

Take C20G A119U: the “polymerase ribozyme fitness (log ratio)” value is -4.11.

For the variant C20A G39A G77U A121G, the “polymerase ribozyme fitness (log ratio)” value is -1.8.

For G19U G93U, the “polymerase ribozyme fitness (log ratio)” value was -4.25.

Take C20G A29G C88U U106A: the “polymerase ribozyme fitness (log ratio)” value was -5.14.

Turning to C20G C76A, the “polymerase ribozyme fitness (log ratio)” value is -4.94.

Regarding C20G U32A G44C A111C G113U, the “polymerase ribozyme fitness (log ratio)” value was -2.86.

Turning to G19U G135U, the “polymerase ribozyme fitness (log ratio)” value was -3.57.

With C20A C40A C115A, the “polymerase ribozyme fitness (log ratio)” value was -4.58.

With G19A G23U U92A G120U C124U, the “polymerase ribozyme fitness (log ratio)” value was -6.05.

With G19C G52A A119U, the “polymerase ribozyme fitness (log ratio)” value is -3.63.

Consider C20A U21A U54C C94U U109G, for which the “polymerase ribozyme fitness (log ratio)” value was -5.29.

G19C A24U G48U G52U C64G U109A G110U: the “polymerase ribozyme fitness (log ratio)” value was -7.39.

As to C20G C124G, the “polymerase ribozyme fitness (log ratio)” value was -3.06.

For G19U G63C U92A, the “polymerase ribozyme fitness (log ratio)” value was -5.54.

Regarding C20G A41U C73G U87C U92A C123G, the “polymerase ribozyme fitness (log ratio)” value is -4.71.

For the variant G19U C70U C94A C114U, the “polymerase ribozyme fitness (log ratio)” value was -2.13.

With G19U G71U A84U, the “polymerase ribozyme fitness (log ratio)” value is -4.08.

For C20A G45U A100U, the “polymerase ribozyme fitness (log ratio)” value was -5.17.

Consider C20A A41U G61A C102A, for which the “polymerase ribozyme fitness (log ratio)” value was -6.03.

For the variant G19U C53G A91G, the “polymerase ribozyme fitness (log ratio)” value is -3.77.

Take C20A G127C: the “polymerase ribozyme fitness (log ratio)” value was -2.94.

G19C G60A G93A: the “polymerase ribozyme fitness (log ratio)” value was -2.11.

G19U U21A C49A C82A G113C: the “polymerase ribozyme fitness (log ratio)” value was -4.41.

For the variant G19A G48U G63A U96G C101A G113U, the “polymerase ribozyme fitness (log ratio)” value is -5.6.

As to G19C U78C A90G G113U C114U, the “polymerase ribozyme fitness (log ratio)” value is -0.588.
